Values quoted from earlier work in paper PMC6753016.
Where two headings read alike, the source gives them in different places. Blank lines part the entries; values can stand above or below the substance they belong to.

Key:
Cathepsin L [1] = molecular target: Cathepsin L (UniProt P07711)
Target sequence in this assay (P07711 114-288, chain 1 of 2): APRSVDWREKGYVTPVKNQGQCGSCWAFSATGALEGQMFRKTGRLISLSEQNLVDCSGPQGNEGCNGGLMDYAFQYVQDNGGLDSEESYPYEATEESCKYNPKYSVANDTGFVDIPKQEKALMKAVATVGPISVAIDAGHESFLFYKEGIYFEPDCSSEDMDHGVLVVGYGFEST
Target sequence in this assay (P07711 292-333, chain 2 of 2): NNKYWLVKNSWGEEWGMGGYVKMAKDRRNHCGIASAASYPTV

Cathepsin H [2] = molecular target: Cathepsin H (UniProt P09668)
Target sequence in this assay (P09668 116-335): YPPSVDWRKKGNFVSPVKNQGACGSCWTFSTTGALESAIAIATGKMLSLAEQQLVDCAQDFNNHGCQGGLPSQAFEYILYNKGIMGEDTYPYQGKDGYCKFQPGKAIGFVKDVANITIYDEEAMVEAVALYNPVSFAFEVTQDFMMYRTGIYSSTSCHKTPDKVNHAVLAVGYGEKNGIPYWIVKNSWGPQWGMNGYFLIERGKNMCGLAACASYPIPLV

Cathepsin H [3] = molecular target: Cathepsin H (UniProt P09668); remark: listed apart in the source
Target sequence in this assay (P09668 whole entry, looked up): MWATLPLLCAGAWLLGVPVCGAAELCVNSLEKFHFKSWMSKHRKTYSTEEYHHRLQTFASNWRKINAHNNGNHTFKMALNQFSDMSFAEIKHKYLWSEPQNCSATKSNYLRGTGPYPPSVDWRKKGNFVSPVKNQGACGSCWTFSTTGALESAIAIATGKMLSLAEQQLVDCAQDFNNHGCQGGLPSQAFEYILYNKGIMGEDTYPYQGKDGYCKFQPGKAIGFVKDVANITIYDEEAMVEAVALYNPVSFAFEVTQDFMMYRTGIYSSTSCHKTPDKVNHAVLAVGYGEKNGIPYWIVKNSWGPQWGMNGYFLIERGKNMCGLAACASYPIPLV

Cathepsin L [4] = molecular target: Cathepsin L (UniProt P07711); remark: listed apart in the source
Target sequence in this assay (P07711 292-333): as the sequence (P07711 292-333, chain 2 of 2) above

β-Trypsin (Bos taurus) = β-Trypsin (Bos taurus) (UniProt P00760)
[5] = molecular target: Kallikrein 14 (Homo sapiens) (UniProt Q9P0G3)
Trypsin (Bos taurus) [6] = molecular target: Trypsin (Bos taurus) (UniProt P00760)
[7] = molecular target: Kallikrein 5 (Homo sapiens) (UniProt Q9Y337)
[8] = molecular target: Matriptase (Homo sapiens) (UniProt Q9Y5Y6)
[9] = molecular target: Kallikrein 7 (Homo sapiens) (UniProt P49862)
[10] = molecular target: Cathepsin G (Homo sapiens) (UniProt P08311)
[11] = molecular target: Porcine elastase (Sus scrofa) (UniProt P00772)
Cathepsin B [12] = molecular target: Cathepsin B (UniProt P07858)
Cathepsin L [13] = molecular target: Cathepsin L (UniProt P07711); remark: listed apart in the source
Target sequence in this assay (P07711 114-288, chain 1 of 2): as the sequence (P07711 114-288, chain 1 of 2) above
Target sequence in this assay (P07711 292-333, chain 2 of 2): as the sequence (P07711 292-333, chain 2 of 2) above

Cathepsin H [14] = molecular target: Cathepsin H (UniProt P09668); remark: listed apart in the source
Target sequence in this assay (P09668 116-335): as the sequence (P09668 116-335) above

Cathepsin H [15] = molecular target: Cathepsin H (UniProt P09668); remark: listed apart in the source
Target sequence in this assay (P09668 whole entry, looked up): as the sequence (P09668 whole entry, looked up) above

Cathepsin L [16] = molecular target: Cathepsin L (UniProt P07711); remark: listed apart in the source
Target sequence in this assay (P07711 292-333): as the sequence (P07711 292-333, chain 2 of 2) above

Cathepsin B [17] = molecular target: Cathepsin B (UniProt P07858); remark: listed apart in the source
[18] = molecular target: Factor XIIa (Homo sapiens) (UniProt P00748)
Trypsin (Bos taurus) [19] = molecular target: Trypsin (Bos taurus) (UniProt P00760); remark: listed apart in the source

Chain of Corn cystatin-I (P31726 25-135): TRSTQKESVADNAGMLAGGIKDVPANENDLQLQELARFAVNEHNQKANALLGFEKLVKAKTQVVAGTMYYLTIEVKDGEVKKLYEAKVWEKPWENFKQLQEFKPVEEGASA
Chain of Corn Hageman factor inhibitor (P01088 29-138): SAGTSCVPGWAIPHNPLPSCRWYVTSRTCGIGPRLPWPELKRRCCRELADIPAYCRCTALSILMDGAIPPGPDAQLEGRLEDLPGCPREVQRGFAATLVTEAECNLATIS
Chain of Trypsin (Bos taurus) (P00760 149-246): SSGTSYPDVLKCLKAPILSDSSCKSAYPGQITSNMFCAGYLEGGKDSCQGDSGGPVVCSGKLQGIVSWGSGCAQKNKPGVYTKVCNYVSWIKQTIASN
Chain of Factor XIIa (Homo sapiens) (P00748 whole entry, looked up): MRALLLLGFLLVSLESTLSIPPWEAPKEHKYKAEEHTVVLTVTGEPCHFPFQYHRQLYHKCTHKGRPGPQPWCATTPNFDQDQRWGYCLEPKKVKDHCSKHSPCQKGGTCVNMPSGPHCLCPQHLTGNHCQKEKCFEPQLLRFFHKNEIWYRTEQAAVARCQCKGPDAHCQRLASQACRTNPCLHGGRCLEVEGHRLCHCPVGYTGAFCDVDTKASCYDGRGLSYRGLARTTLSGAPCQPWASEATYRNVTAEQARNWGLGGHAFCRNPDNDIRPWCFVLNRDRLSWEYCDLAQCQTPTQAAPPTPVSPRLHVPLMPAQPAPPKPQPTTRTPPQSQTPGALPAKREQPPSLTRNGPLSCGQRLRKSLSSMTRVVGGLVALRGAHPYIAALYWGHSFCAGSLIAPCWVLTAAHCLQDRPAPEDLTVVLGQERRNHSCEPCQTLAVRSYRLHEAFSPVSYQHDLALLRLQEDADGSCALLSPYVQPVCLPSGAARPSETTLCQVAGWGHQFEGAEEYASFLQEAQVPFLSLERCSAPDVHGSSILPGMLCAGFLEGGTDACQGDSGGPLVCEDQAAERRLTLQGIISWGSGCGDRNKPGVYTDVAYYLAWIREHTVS
Chain of Porcine elastase (Sus scrofa) (P00772 27-266): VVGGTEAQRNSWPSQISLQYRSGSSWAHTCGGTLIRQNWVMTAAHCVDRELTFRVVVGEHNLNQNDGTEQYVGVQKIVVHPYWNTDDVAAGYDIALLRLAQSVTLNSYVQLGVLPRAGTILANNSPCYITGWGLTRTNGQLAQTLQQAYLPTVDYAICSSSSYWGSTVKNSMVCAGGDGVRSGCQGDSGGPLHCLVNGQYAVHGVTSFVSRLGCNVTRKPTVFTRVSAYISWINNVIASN
Chain of Kallikrein 14 (Homo sapiens) (Q9P0G3 41-267): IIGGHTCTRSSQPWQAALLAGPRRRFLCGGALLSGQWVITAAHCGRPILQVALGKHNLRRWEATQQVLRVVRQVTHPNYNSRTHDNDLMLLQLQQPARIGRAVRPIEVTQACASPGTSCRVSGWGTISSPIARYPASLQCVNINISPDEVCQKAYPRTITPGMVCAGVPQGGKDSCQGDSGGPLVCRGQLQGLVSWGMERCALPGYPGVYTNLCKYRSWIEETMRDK
Chain of MTI-2 (P26780 31-93): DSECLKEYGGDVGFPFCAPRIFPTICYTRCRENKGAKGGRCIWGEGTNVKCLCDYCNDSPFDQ
Chain of Matriptase (Homo sapiens) (Q9Y5Y6 whole entry): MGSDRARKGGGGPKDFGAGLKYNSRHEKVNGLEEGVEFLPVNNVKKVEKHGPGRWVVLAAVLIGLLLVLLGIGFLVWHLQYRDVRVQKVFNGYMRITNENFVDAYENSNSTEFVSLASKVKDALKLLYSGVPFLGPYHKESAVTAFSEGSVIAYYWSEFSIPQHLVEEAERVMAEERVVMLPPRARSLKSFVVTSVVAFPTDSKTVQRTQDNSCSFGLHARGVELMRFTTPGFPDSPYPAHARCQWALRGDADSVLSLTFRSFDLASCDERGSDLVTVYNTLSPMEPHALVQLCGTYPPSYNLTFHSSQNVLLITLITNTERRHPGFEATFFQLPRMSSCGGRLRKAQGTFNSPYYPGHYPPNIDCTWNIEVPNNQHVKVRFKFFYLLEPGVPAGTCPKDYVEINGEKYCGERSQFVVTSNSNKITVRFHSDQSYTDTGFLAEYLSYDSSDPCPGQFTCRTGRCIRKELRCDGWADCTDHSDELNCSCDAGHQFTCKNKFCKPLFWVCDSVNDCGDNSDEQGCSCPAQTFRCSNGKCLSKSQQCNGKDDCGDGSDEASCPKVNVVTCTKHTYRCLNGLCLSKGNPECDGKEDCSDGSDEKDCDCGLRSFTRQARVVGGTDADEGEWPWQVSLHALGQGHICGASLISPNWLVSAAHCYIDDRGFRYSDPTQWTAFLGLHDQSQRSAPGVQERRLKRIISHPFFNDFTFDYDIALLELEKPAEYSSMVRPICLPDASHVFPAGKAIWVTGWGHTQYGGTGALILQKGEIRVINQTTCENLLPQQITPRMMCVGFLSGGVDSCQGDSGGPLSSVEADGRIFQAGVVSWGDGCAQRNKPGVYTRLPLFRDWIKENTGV
Chain of Kallikrein 7 (Homo sapiens) (P49862 30-253): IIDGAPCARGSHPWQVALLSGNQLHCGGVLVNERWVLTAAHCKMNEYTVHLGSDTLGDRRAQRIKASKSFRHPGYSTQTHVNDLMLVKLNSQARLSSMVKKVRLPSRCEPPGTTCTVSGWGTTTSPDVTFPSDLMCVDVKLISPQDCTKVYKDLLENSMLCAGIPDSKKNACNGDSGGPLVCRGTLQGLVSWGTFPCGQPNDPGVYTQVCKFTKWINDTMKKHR
Chain of Cathepsin G (Homo sapiens) (P08311 21-243): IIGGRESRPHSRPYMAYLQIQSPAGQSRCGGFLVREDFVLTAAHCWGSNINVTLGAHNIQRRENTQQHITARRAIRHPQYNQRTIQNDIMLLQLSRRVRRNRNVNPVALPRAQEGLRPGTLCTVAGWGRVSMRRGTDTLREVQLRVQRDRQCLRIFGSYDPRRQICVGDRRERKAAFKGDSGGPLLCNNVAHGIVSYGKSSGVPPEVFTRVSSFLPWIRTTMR
Chain of Kallikrein 5 (Homo sapiens) (Q9Y337 23-293): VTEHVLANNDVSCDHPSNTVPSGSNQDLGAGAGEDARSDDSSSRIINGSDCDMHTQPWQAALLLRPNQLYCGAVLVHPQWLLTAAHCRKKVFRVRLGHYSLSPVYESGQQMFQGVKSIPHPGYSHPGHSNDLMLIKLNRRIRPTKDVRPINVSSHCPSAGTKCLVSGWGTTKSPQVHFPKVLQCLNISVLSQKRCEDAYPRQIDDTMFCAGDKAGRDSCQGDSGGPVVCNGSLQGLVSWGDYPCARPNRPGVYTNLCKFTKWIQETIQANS
Chain of β-Trypsin (Bos taurus) (P00760 149-246): as the sequence (P00760 149-246) above
Chain of MCEI-III (P10296 2-31): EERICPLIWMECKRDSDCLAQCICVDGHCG

Substance: MTI-2 (from UniProt P26780)
Ki (β-Trypsin (Bos taurus)): 0.01 nM

Substance: SFTI-I (from UniProt Q4GWU5)
Ki [5]: 25 nM | Ki (Trypsin (Bos taurus) [6]): 0.17 nM | Ki [7]: 140 nM | Ki [8]: 200 nM | Ki [9]: 740 nM | Ki [10]: 730 nM

Substance: Oryzacystatin-I (from UniProt P09229)
Ki (Cathepsin B [12]): 79 nM | Ki (Cathepsin L [13]): 0.73 nM | Ki (Cathepsin H [14]): 1000 nM | Ki (Cathepsin H [15]): 1000 nM | Ki (Cathepsin L [16]): 0.73 nM | Ki (Cathepsin B [17]): 79 nM

Substance: Corn Hageman factor inhibitor (from UniProt P01088)
Ki [18]: 2 nM | Ki (Trypsin (Bos taurus) [19]): 23 nM

Now from value to substance:

Ki (Cathepsin L [1]): 17 nM | Ki (Cathepsin H [2]): 5.7 nM | Ki (Cathepsin H [3]): 5.7 nM | Ki (Cathepsin L [4]): 17 nM
Substance: Corn cystatin-I (from UniProt P31726)

Ki [11]: 4 nM
Substance: MCEI-III (from UniProt P10296)
